We go through 4 molecules from patent US20240376185A1 (SMIVET B V, published 2024).

Test [1] addresses T1, tetanus neurotoxin (TeNT), authentic tetanus holotoxin (Clostridium tetani, UniProt P04958 2-1315). Nature of the test: GT1b-TeNT inhibition ELISA. On the technique in general: In an ELISA, binding on a coated surface is turned into a signal by an enzyme label.
Test [2] has as its target T1, tetanus neurotoxin (TeNT), authentic …. As to the kind of experiment: GT1b-TeNT inhibition ELISA. This is another data set of the same source.
The target of test [3] is horse albumin (horse Alb) (horse, UniProt P35747 25-607). Nature of the test: BLI ([…] (0.11 nm), […] (0.01 nm).
Test [4] concerns the target T1, tetanus neurotoxin (TeNT), authentic …. As to the kind of experiment: ELISA: directly coated TeNT, anti-his6 PO.
For test [5] the target is unchanged. As to the kind of experiment: ELISA: directly coated TeNT, anti-his6 PO. This is another data set of the same source.
For test [6] the target is unchanged. As to the kind of experiment: ELISA: directly coated TeNT, goat anti-llama Ig PO.
The target is the same in test [7]. Nature of the test: ELISA: directly coated TeNT, goat anti-llama Ig PO. The source holds these as a separate data set.
The target is the same in test [8]. As to the kind of experiment: BLI (Octet Red96): biotinylated SDA on SA sensor, TeNT as analyte. In general terms: BLI is a label-free optical method that tracks binding on a fibre tip over time.
Test [9] has the same target. Nature of the test: bridging ELISA: coated TeNT, SDA, biotinylated TeNT, StrepPO (bivalent binding).
Test [10] shares this target. Described as above. The source holds these as a separate data set.
Test [11] deals with T2, mouse albumin (mouse, UniProt P07724 25-608). Nature of the test: ELISA on coated albumin.
Test [12] concerns the target T3, swine albumin (swine, UniProt P08835 25-607).
T3 construct: also called Porcine albumin
As to the kind of experiment: ELISA on coated albumin.

For test [13], the target named is T4, human albumin (human, UniProt P02768 25-609). As to the kind of experiment: ELISA on coated albumin.
For test [14], the target named is T5, sheep albumin (sheep, UniProt P14639 25-607). As to the kind of experiment: ELISA on coated albumin.
The target of test [15] is T6, bovine albumin (bovine, UniProt P02769 25-607). As to the kind of experiment: ELISA on coated albumin.
In test [16] the target is T7, chicken ovalbumin (chicken, UniProt P01012 2-386).
T7 construct: also called Chicken Alb
T7 sequence (looked up): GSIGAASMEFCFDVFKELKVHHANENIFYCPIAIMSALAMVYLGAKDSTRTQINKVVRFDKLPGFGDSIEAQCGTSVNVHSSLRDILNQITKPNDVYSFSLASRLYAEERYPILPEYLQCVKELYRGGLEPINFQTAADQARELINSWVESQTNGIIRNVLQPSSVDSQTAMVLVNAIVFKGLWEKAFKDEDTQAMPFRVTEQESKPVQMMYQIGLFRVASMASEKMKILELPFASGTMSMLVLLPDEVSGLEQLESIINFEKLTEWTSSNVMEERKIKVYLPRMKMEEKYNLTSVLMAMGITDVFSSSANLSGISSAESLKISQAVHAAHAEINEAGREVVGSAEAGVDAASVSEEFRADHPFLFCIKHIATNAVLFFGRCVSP
As to the kind of experiment: ELISA on coated albumin.

The target of test [17] is T8, horse albumin (horse, UniProt P35747 25-607).
T8 construct: also called Equine albumin
Nature of the test: ELISA on coated albumin.

The target in test [18] is T9, dog albumin (dog, UniProt P49822 25-608).
T9 construct: also called Canine albumin
As to the kind of experiment: ELISA on coated albumin.

Test [19] deals with T10, cat albumin (cat, UniProt P49064 25-608).
T10 construct: also called Feline albumin
Nature of the test: ELISA on cat albumin captured from serum.

The target in test [20] is T2, mouse albumin. As to the kind of experiment: ELISA; A450 below 0.2 at highest SDA concentration.
In test [21] the target is T3, swine albumin. As to the kind of experiment: ELISA; A450 below 0.2 at highest SDA concentration.
The target in test [22] is T10, cat albumin. Nature of the test: ELISA; A450 below 0.2 at highest SDA concentration.
Test [23] deals with T4, human albumin. As to the kind of experiment: ELISA; A450 below 0.2 at highest SDA concentration.
The target of test [24] is T5, sheep albumin. As to the kind of experiment: ELISA; A450 below 0.2 at highest SDA concentration.
Test [25] addresses T6, bovine albumin. As to the kind of experiment: ELISA; A450 below 0.2 at highest SDA concentration.
Test [26] addresses T7, chicken ovalbumin. Nature of the test: ELISA; A450 below 0.2 at highest SDA concentration.
Test [27] has as its target T8, horse albumin. As to the kind of experiment: ELISA; A450 below 0.2 at highest SDA concentration.
Test [28] deals with T9, dog albumin. As to the kind of experiment: ELISA; A450 below 0.2 at highest SDA concentration.
Test [29] deals with T11, Tetanus neurotoxin (TeNT), authentic tetanus holotoxin (Clostridium tetani, UniProt P04958 2-1315).
Test [30] addresses T11, Tetanus neurotoxin (TeNT), authentic …. This is another data set of the same source.
Test [31] concerns the target T12, Horse albumin (horse, UniProt P35747 25-607).
T12 construct: also called Equine albumin; Equine Alb
Nature of the test: BLI (Octet Red96), biotinylated albumin on SA sensor, SDA as analyte.

Test [32] concerns the target Human albumin (human, UniProt P02768 25-609). The description is as above.
Test [33] addresses T13, Dog albumin (dog, UniProt P49822 25-608).
T13 construct: also called Canine albumin; Canine Alb
Nature of the test: BLI (Octet Red96), biotinylated SDA on SA sensor, albumin as analyte.

The target of another test is T14, dog serum albumin (dog, UniProt P49822 25-608).
T14 construct: mature; also called dog Alb; Canine albumin
As to the kind of experiment: BLI, biotinylated SDA on SA sensors.

The next test concerns the target T15, horse serum albumin (horse, UniProt P35747 25-607).
T15 construct: mature; also called horse Alb; Equine albumin
Nature of the test: BLI, biotinylated albumin on SA sensors.

The target of the next test is T16, human serum albumin (human, UniProt P02768 25-609).
T16 construct: mature; also called human Alb
Nature of the test: BLI, biotinylated albumin on SA sensors.

Like-named read-outs stand apart in the source and are kept apart here.

T8 sequence (P35747 25-607 limits assumed): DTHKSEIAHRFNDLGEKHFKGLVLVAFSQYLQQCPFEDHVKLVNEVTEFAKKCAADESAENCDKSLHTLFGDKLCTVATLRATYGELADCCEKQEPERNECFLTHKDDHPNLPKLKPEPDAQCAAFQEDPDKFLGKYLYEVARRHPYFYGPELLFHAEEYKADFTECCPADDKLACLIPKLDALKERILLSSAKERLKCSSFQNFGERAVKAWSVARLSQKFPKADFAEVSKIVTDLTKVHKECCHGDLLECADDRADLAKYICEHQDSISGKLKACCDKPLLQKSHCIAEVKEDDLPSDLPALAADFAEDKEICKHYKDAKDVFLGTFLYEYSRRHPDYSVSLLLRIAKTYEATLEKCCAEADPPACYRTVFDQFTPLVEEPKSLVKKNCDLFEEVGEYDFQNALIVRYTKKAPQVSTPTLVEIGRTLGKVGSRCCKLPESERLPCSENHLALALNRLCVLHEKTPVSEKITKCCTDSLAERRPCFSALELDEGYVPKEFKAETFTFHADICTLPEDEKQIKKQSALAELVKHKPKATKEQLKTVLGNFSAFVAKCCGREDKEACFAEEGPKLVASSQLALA
T6 sequence (P02769 25-607 limits assumed): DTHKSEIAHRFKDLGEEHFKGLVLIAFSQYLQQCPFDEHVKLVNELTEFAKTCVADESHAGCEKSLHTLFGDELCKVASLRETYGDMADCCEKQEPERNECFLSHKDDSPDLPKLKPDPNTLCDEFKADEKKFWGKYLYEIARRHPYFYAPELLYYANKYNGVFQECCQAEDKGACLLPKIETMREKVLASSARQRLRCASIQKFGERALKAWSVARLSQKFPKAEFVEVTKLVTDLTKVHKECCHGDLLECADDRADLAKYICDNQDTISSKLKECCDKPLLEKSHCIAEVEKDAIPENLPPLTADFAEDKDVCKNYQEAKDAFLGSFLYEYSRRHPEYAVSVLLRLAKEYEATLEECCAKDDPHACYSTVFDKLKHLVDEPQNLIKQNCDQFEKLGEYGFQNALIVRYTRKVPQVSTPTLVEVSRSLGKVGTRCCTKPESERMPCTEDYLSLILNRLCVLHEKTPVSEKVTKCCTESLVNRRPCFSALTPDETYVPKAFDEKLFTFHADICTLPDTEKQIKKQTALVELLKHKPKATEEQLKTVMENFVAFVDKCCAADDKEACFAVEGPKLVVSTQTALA
T3 sequence (P08835 25-607 limits assumed): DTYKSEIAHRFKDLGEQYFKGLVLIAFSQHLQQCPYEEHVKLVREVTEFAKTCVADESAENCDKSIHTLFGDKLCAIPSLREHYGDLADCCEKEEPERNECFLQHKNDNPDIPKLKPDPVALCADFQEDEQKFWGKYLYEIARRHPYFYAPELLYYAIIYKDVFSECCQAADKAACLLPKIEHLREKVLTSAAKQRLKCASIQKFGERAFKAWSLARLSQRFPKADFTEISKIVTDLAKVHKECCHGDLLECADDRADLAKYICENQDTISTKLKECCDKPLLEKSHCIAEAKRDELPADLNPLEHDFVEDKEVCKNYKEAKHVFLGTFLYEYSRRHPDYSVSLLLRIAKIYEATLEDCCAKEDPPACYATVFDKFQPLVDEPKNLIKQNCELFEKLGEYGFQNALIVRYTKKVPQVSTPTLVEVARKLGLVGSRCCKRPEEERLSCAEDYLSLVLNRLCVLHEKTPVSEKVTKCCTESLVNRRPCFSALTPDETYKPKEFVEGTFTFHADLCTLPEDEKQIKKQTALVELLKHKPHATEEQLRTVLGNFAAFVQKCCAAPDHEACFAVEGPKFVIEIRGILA
T11 sequence (P04958 2-457 limits assumed, chain 1 of 2): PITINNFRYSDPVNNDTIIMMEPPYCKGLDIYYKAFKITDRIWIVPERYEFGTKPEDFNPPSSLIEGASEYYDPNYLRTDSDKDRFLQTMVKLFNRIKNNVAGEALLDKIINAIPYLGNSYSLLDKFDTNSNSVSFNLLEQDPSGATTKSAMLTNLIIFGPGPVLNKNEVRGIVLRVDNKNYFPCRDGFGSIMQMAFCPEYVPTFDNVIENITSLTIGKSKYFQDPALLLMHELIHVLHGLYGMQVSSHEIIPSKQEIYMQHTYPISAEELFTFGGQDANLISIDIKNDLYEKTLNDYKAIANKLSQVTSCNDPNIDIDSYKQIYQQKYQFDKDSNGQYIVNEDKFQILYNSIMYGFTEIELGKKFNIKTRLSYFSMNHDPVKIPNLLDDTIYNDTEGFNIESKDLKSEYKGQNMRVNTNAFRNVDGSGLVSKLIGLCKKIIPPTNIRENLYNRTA
T11 sequence (P04958 458-1315 limits assumed, chain 2 of 2): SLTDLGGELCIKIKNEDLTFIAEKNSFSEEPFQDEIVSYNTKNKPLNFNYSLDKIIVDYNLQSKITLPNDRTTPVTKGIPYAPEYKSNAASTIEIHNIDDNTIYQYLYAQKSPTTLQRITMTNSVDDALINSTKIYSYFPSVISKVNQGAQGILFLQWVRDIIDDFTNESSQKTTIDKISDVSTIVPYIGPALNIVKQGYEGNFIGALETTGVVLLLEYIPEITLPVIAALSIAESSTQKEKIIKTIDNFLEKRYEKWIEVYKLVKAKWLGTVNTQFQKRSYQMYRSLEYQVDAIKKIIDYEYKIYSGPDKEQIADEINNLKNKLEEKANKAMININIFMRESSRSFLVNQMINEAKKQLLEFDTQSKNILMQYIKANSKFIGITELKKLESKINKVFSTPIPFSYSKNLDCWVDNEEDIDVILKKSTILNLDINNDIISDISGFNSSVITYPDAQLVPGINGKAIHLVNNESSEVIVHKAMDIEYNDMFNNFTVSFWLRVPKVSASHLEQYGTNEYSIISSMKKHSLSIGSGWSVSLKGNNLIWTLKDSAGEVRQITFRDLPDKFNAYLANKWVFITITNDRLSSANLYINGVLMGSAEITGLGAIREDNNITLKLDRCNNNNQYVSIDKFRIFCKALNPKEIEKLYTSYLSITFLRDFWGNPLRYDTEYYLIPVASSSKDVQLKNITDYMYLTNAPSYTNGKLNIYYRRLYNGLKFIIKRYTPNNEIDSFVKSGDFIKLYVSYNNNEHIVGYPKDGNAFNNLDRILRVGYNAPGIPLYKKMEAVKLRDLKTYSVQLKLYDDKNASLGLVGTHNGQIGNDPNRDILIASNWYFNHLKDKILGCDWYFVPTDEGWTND
T1 sequence (P04958 2-457 limits assumed, chain 1 of 2): as the sequence (P04958 2-457 limits assumed, chain 1 of 2) above
T1 sequence (P04958 458-1315 limits assumed, chain 2 of 2): as the sequence (P04958 458-1315 limits assumed, chain 2 of 2) above
T9 sequence (P49822 25-608 limits assumed): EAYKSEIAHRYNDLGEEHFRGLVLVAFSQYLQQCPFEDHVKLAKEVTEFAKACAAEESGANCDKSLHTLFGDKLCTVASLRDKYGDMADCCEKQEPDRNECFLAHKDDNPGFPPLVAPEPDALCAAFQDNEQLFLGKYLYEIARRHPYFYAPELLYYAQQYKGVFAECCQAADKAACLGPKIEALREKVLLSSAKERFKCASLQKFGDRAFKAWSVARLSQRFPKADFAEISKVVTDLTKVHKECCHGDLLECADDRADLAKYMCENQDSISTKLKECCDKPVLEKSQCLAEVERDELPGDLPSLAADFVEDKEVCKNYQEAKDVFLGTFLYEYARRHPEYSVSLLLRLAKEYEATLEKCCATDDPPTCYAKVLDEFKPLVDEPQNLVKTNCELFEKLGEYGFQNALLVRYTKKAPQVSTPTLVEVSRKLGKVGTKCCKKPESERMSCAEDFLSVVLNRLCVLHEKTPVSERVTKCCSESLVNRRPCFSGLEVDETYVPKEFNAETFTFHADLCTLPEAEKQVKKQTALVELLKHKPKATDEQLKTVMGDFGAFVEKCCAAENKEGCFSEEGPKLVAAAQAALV
T15 sequence (P35747 25-607): as the sequence (P35747 25-607 limits assumed) above

B1: SVT16L (VHH)
VHH: QVQLQESGGGSVQAGDSLRLSCAASGRTISNYAMGWFRQAPGKQREFVAAISRSDNTYYTDSVKGRFTISRDNAKNTLYLQMNSLKPEETAVYYCAADPNLMYESKWKYRALEAWGQGTLVTVSS
As a reminder, the Kd is the constant that tells how readily two partners part at equilibrium. Read a high Kd as a looser complex. One may read the koff as a measure of how fast the partners let go of each other. Low readings indicate a long-lived complex, high ones a short-lived complex. The kon is a measure of how fast the partners come together. For B1, the “minimal absorbance value (GT1b-TeNT inhibition)” value in test [1] was 0.18 A450. In addition, the “Effective SDA Concentration at A450 0.56” value in test [2] amounted to 21 ng/mL. Moreover, the binding result in [3] is “no binding (tested: 100 nM)”. Further, the maximal absorbance value came out at 1.56 A450 in test [4], 0.44 A450 in test [6] and 0.18 A450 in test [9]. Moreover, the “Effective SDA Concentration at A450 0.15” value in test [5] was 1.4 ng/mL; in test [7], 5 ng/mL. In test [8], this molecule registered a Kd of 0.339 nM. Moreover, the koff in test [8] came out at 0.000311 s⁻¹. For the same molecule, the on-rate constant (kon) in test [8] came out at 916000 M⁻¹ s⁻¹. Besides, the “Effective SDA Concentration at A450 0.3” value in [10] was more than 1000 ng/mL.

B2: SVT06L (VHH)
VHH: QVQLQESGGGSVQAGGSLRLSCTASELSYDDYTIAWFRRAAGEGRVEDGEGVASITKSYDRAYDNKINYGHSVKGRFTISRDNAKNTVYLQMTDLLPSDTAVYYCALDITPPGGVGASLTEGFLFDYWGQGTQVTVSS
Turning to B2, the “SDA Effective Concentration resulting in A450 nm = 0.2” value in the test with mouse albumin [11], with swine albumin [12], with human albumin [13], with sheep albumin [14], in the test with bovine albumin [15] and with chicken ovalbumin [16] was more than 1000 ng/mL each time. The “SDA Effective Concentration resulting in A450 nm = 0.2” value with horse albumin [17] and with dog albumin [18] was more than 1000 ng/mL each time. Also, the “maximal absorbance value at 450 nm” value was found to be 0.073 A450 in the test with mouse albumin [11]; 0.08 A450 with swine albumin [12]; 0.065 A450 in the test with human albumin [13]; 0.06 A450 in the test with sheep albumin [14]; 0.051 A450 with bovine albumin [15]; 0.057 A450 in the test with chicken ovalbumin [16]. The entries for the “maximal absorbance value at 450 nm” value in the test with horse albumin [17], in the test with dog albumin [18] and with cat albumin [19] were 0.056 A450, 0.053 A450 and 0.099 A450, respectively. Moreover, the binding result with mouse albumin [20], with swine albumin [21], in the test with cat albumin [22], with human albumin [23], with sheep albumin [24] and in the test with bovine albumin [25] was “no binding (tested: 1000 ng/ml)” each time. Further, the binding result with chicken ovalbumin [26], with horse albumin [27] and with dog albumin [28] was “no binding (tested: 1000 ng/ml)” each time.

B3: SVT15-3FW4M-GS3-SVT06-GS2-SVG13M5-H6 (bispecific antibody)
chain: QVQLQESGGGLVQTGGSLRLSCRASGRAFANYHFGWFRQAPGKDREFVASISWKGGSTYYANFALGRFTSSVDRAESSVYLQMSGLTPEDTATYYCAAHDGGDWNYHTGMDYWGQGTQVTVSSGGGGSGGGGSGGGGSQVQLQESGGGSVQAGGSLRLSCTASELSYDDYTIAWFRRAAGEGRVEDGEGVASITKSYDRAYDNKINYGHSVKGRFTISRDNAKNTVYLQMTDLLPSDTAVYYCALDITPPGGVGASLTEGFLFDYWGQGTQVTVSSGGGGSGGGSEVQLVESGGGLVQPGGSLRLSCEASGFTFDDYGMSWVRQAPGKGLEWVSSLTPNGGSTYYADSVKGRFTISRDNAKNTLYLQMNSLKPEDTALYYCAKNSYYGAMDYRGQGTQVTVSSHHHHHH
For B3, the results for the Kd in test [29] and in test [30] were less than 0.00041 nM and 0.0229 nM, respectively. Moreover, the values for the koff in test [29] and in test [30] were less than 1.99e-07 s⁻¹ and 2.73e-05 s⁻¹, respectively. The kon in test [29] was 484000 M⁻¹ s⁻¹; in test [30], 1.19e+06 M⁻¹ s⁻¹. The binding result is “no binding (tested: 100 nM)” with Horse albumin [31], “no binding (tested: 100 nM)” with Human albumin [32] and “no binding (tested: 16-500 nM)” with Dog albumin [33].

B4: SVT15-3FW4M-GS3-SVT06-GS2-SVG13M5-H6 (bispecific antibody)
chain: QVQLQESGGGLVQTGGSLRLSCRASGRAFANYHFGWFRQAPGKDREFVASISWKGGSTYYANFALGRFTSSVDRAESSVYLQMSGLTPEDTATYYCAAHDGGDWNYHTGMDYWGQGTQVTVSSGGGGSGGGGSGGGGSQVQLQESGGGSVQAGGSLRLSCTASELSYDDYTIAWFRRAAGEGRVEDGEGVASITKSYDRAYDNKINYGHSVKGRFTISRDNAKNTVYLQMTDLLPSDTAVYYCALDITPPGGVGASLTEGFLFDYWGQGTQVTVSSGGGGSGGGSEVQLVESGGGLVQPGGSLRLSCEASGFTFDDYGMSWVRQAPGKGLEWVSSLTPNGGSTYYADSVKGRFTISRDNAKNTLYLQMNSLKPEDTALYYCAKNSYYGAMDYRGQGTQVTVSSHHHHHH
With B4, the binding result is reported as “no binding (tested: 500 nM)” with dog serum albumin, “no binding (tested: 100 nM)” with horse serum albumin and “no binding (tested: 100 nM)” with human serum albumin.
